Results on 3 molecules are retold here after article PMC5800818, “A Numb–Mdm2 fuzzy complex reveals an isoform-specific involvement of Numb in breast cancer” (The Journal of Cell Biology, 2018).

Non-standard residues stand in square brackets, D forms with d. No end group written: not given here. pY = N[C@@H](Cc1ccc(OP(=O)(O)O)cc1)C(=O)O

Conditions in all cases: both partners purified
The target in test [1] is T1, rhodamine-labeled Mdm2^216–302 (human, UniProt Q00987-11 216-302, rhodamine label (site not stated)).
T1 construct: as m32 with the label; source: purified, rhodaminated in vitro
T1 sequence (Q00987 210-296): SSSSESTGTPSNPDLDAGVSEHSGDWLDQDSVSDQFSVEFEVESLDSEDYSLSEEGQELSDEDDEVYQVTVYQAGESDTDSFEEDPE
Nature of the test: fluorescence polarisation; 50 nM rhodaminated Mdm2 216–302 with increasing concentrations of the ligand; 10 mM Tris-HCl pH 7.5, 0.15 M NaCl, 0.5 mM EDTA, 1 mM DTT. On the technique in general: Fluorescence polarisation rises when a labelled molecule tumbles more slowly, as on binding a larger partner.

For test [2], the target named is T2, Numb PTBi (Numb^20–175), His fusion (human, UniProt P49757 20-175).
T2 construct: source: bacterially expressed as His fusion, purified
T2 sequence (looked up): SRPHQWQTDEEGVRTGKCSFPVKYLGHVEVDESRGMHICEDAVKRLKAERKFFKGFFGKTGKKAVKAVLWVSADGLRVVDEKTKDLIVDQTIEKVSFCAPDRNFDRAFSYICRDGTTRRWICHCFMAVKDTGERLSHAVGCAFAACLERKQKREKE
Nature of the test: pull-down; GST-Mdm2 fragments (1 µM) on GSH beads, purified Numb fragments (5 µM in Fig. 1 F; 2 and 4 µM or 1 and 2 µM in Fig. 6), 2 h at 4 °C, 10 mM Hepes pH 7.5, 0.15 M NaCl, 5% glycerol, 0.1% Tween-20; Coomassie staining.

For test [3], the target named is T3, Numb-PTBi (Numb^20–175), purified (human, UniProt P49757 20-175).
T3 construct: For NMR the protein was isotope-labelled; source: E. coli BL21 Rosetta pLysS, purified (NTA beads, Superdex-200)
T3 sequence (looked up): T2 sequence (looked up)
The description is as above.

For test [4], the target named is T3, Numb-PTBi (Numb^20–175), purified. Nature of the test: crystal structure; Numb-PTBi with a 1.3 molar excess of GPpY peptide; hanging drops at 20 °C, 25% PEG 3350, 0.2 M lithium sulfate, 0.1 M Bis-Tris pH 6; space groups F222 and P212121.

B1: Numb-PTBo, purified (domain or fragment)
chain: SRPHQWQTDEEGVRTGKCSFPVKYLGHVEVDESRGMHICEDAVKRLKATGKKAVKAVLWVSADGLRVVDEKTKDLIVDQTIEKVSFCAPDRNFDRAFSYICRDGTTRRWICHCFMAVKDTGERLSHAVGCAFAACLERKQKREKE
As for B1, the “fold reduction of binding affinity against PTBi” value in test [1] is about 30 fold.

B2: GST-Mdm2^250–290 (domain or fragment, human, UniProt Q00987-11 250-290, looked up)
chain: QFSVEFEVESLDSEDYSLSEEGQELSDEDDEVYQVTVYQAG
notes: Mdm2 residues 250–290, a short stretch of the acidic domain; also called minimal Mdm2 fragment; source: E. coli BL21 Rosetta, purified (Glutathione Sepharose)
In the case of B2, the binding result in test [2] and in test [3] was “binds” throughout.

B3: GPpY phosphopeptide (AYIGPpYL) (peptide)
peptide: AYIGP[pY]L
notes: also called GPpY peptide; source: synthetic peptide (United Biosystems)
Turning to B3, the binding result in test [4] was “binds”.
